In US20170267783A1 (published 2017):

Target: extracellular matrix (ECM; BD Matrigel)
Test: ECL on Matrigel-coated plate, signal divided by that of MRAH-G1d/MRAL-k0

Binder | ECM binding ratio (standard = 1) (ratio to standard antibody)
TR01H109-E2702GsKsc/GCH065-E2704sEpsc/L0011-k0 (bispecific antibody, human IgG4 S228P, kappa, N297A) heavy 1: QVQLVESGGGLVQPGRSLRLSCAASGFTFSNAWMHWVRQAPGKGLEWVAQIKDKSQNYATYVAESVKGRFTISRDDSKNSLYLQMNSLKTEDTAVYYCRYVHYAAGYGVDAWGQGTTVTVSSASTKGPSVFPLAPCSRSTSESTAALGCLVKDYFPEPVTVSWNSGALTSGVHTFPAVLQSSGLYSLSSVVTVPSSSLGTKTYTCNVDHKPSNTKVDKRVESKYGPPCPPCPAPEFRGGPKVFLFPPKPKDTLMISRTPEVTCVVVDVSQEDPEVQFNWYVDGVEVHNAKTKPREEQFASTYRVVSVLTVLHQDWLNGKEYKCKVSNKGLPSSIEKTISKAKGQPREPQVYTLPPSQKEMTKNQVSLTCLVKGFYPSDIAVEWESNGQPENNYKTTPPVLDSDGSFFLYSKLTVDKSRWQEGNVFSCSVMHEALHNRYTQKSLSLSP heavy 2: QVQLVQSGAEVKKPGASVTVSCKASGYTFTDYEMHWIRQPPGEGLEWIGAIDGPTPDTAYSEKFKGRVTLTADKSTSTAYMELSSLTSEDTAVYYCTRFYSYTYWGQGTLVTVSSASTKGPSVFPLAPCSRSTSESTAALGCLVKDYFPEPVTVSWNSGALTSGVHTFPAVLQSSGLYSLSSVVTVPSSSLGTQTYTCNVDHKPSNTKVDKRVESKYGPPCPPCPAPEFRGGPKVFLFPPKPKDTLMISRTPEVTCVVVDVSQEDPEVQFNWYVDGVEVHNAKTKPREEQFASTYRVVSVLTVLHQDWLNGKEYKCKVSNKGLPSSIEKTISKAKGQPREPQVYTLPPSQEEMTKNQVSLTCLVKGFYPSDIAVEWESNGQPENNYKTTPPVLDSDGSFFLYSKLTVDKSRWQEGNVFSCSVMHEALHNHYTQESLSLSP light: DIVMTQSPLSLPVTPGEPASISCRSSQPLVHSNRNTYLHWYQQKPGQAPRLLIYKVSNRFSGVPDRFSGSGSGTDFTLKISRVEAEDVGVYYCGQGTQVPYTFGQGTKLEIKRTVAAPSVFIFPPSDEQLKSGTASVVCLLNNFYPREAKVQWKVDNALQSGNSQESVTEQDSKDSTYSLSSTLTLSKADYEKHKVYACEVTHQGLSSPVTKSFNRGEC | 0.7
TR01H067-E2702GsKsc/GCH054-E2704sEpsc/L0201-k0 (bispecific antibody, human IgG4 S228P, kappa, N297A) heavy 1: QVQLVESGGGLVQPGRSLRLSCAASGFTFSNAWMHWVRQAPGKGLEWVAQIKDKSQNYATYYAESVKGRFTISRDDSKNSLYLQMNSLKTEDTAVYYCRYVHYAASYGVDAWGQGTTVTVSSASTKGPSVFPLAPCSRSTSESTAALGCLVKDYFPEPVTVSWNSGALTSGVHTFPAVLQSSGLYSLSSVVTVPSSSLGTKTYTCNVDHKPSNTKVDKRVESKYGPPCPPCPAPEFRGGPKVFLFPPKPKDTLMISRTPEVTCVVVDVSQEDPEVQFNWYVDGVEVHNAKTKPREEQFASTYRVVSVLTVLHQDWLNGKEYKCKVSNKGLPSSIEKTISKAKGQPREPQVYTLPPSQKEMTKNQVSLTCLVKGFYPSDIAVEWESNGQPENNYKTTPPVLDSDGSFFLYSKLTVDKSRWQEGNVFSCSVMHEALHNRYTQKSLSLSP heavy 2: QVQLVQSGAEVKKPGASVTVSCKASGYTFTDYEMHWIRQPPGEGLEWIGAIDGETPDTAYSEKFKGRVTLTADKSTSTAYMELSSLTSEDTAVYYCTRFYSYTYWGQGTLVTVSSASTKGPSVFPLAPCSRSTSESTAALGCLVKDYFPEPVTVSWNSGALTSGVHTFPAVLQSSGLYSLSSVVTVPSSSLGTQTYTCNVDHKPSNTKVDKRVESKYGPPCPPCPAPEFRGGPKVFLFPPKPKDTLMISRTPEVTCVVVDVSQEDPEVQFNWYVDGVEVHNAKTKPREEQFASTYRVVSVLTVLHQDWLNGKEYKCKVSNKGLPSSIEKTISKAKGQPREPQVYTLPPSQEEMTKNQVSLTCLVKGFYPSDIAVEWESNGQPENNYKTTPPVLDSDGSFFLYSKLTVDKSRWQEGNVFSCSVMHEALHNHYTQESLSLSP light: DIVMTQSPLSLPVTPGEPASISCRSSQPPVHSNRNTYLHWYQQKPGQAPRLLIYKVSNRFSGVPDRFSGSGSGTDFTLKISRVEAEDVGVYYCGQGTQVPYTFGQGTKLEIKRTVAAPSVFIFPPSDEQLKSGTASVVCLLNNFYPREAKVQWKVDNALQSGNSQESVTEQDSKDSTYSLSSTLTLSKADYEKHKVYACEVTHQGLSSPVTKSFNRGEC | 0.5
TR01H109-E2702GsKsc/GCH094-E2704sEpsc/L0011-k0 (bispecific antibody, human IgG4 S228P, kappa, N297A) heavy 1: QVQLVESGGGLVQPGRSLRLSCAASGFTFSNAWMHWVRQAPGKGLEWVAQIKDKSQNYATYVAESVKGRFTISRDDSKNSLYLQMNSLKTEDTAVYYCRYVHYAAGYGVDAWGQGTTVTVSSASTKGPSVFPLAPCSRSTSESTAALGCLVKDYFPEPVTVSWNSGALTSGVHTFPAVLQSSGLYSLSSVVTVPSSSLGTKTYTCNVDHKPSNTKVDKRVESKYGPPCPPCPAPEFRGGPKVFLFPPKPKDTLMISRTPEVTCVVVDVSQEDPEVQFNWYVDGVEVHNAKTKPREEQFASTYRVVSVLTVLHQDWLNGKEYKCKVSNKGLPSSIEKTISKAKGQPREPQVYTLPPSQKEMTKNQVSLTCLVKGFYPSDIAVEWESNGQPENNYKTTPPVLDSDGSFFLYSKLTVDKSRWQEGNVFSCSVMHEALHNRYTQKSLSLSP heavy 2: QVQLVQSGAEVKKPGASVTVSCKASGYTFTDYEMHWVRQAPGEGLEWMGAIDGETPDTAYSEKFKGRVTLTADKSTSTAYMELSSLTSEDTAVYYCTRFYSYTYWGQGTLVTVSSASTKGPSVFPLAPCSRSTSESTAALGCLVKDYFPEPVTVSWNSGALTSGVHTFPAVLQSSGLYSLSSVVTVPSSSLGTQTYTCNVDHKPSNTKVDKRVESKYGPPCPPCPAPEFRGGPKVFLFPPKPKDTLMISRTPEVTCVVVDVSQEDPEVQFNWYVDGVEVHNAKTKPREEQFASTYRVVSVLTVLHQDWLNGKEYKCKVSNKGLPSSIEKTISKAKGQPREPQVYTLPPSQEEMTKNQVSLTCLVKGFYPSDIAVEWESNGQPENNYKTTPPVLDSDGSFFLYSKLTVDKSRWQEGNVFSCSVMHEALHNHYTQESLSLSP light: DIVMTQSPLSLPVTPGEPASISCRSSQPLVHSNRNTYLHWYQQKPGQAPRLLIYKVSNRFSGVPDRFSGSGSGTDFTLKISRVEAEDVGVYYCGQGTQVPYTFGQGTKLEIKRTVAAPSVFIFPPSDEQLKSGTASVVCLLNNFYPREAKVQWKVDNALQSGNSQESVTEQDSKDSTYSLSSTLTLSKADYEKHKVYACEVTHQGLSSPVTKSFNRGEC | 0.4
TR01H067-E2702GsKsc/GCH054-E2704sEpsc/L0222-k0 (bispecific antibody, human IgG4 S228P, kappa, N297A) heavy 1: QVQLVESGGGLVQPGRSLRLSCAASGFTFSNAWMHWVRQAPGKGLEWVAQIKDKSQNYATYYAESVKGRFTISRDDSKNSLYLQMNSLKTEDTAVYYCRYVHYAASYGVDAWGQGTTVTVSSASTKGPSVFPLAPCSRSTSESTAALGCLVKDYFPEPVTVSWNSGALTSGVHTFPAVLQSSGLYSLSSVVTVPSSSLGTKTYTCNVDHKPSNTKVDKRVESKYGPPCPPCPAPEFRGGPKVFLFPPKPKDTLMISRTPEVTCVVVDVSQEDPEVQFNWYVDGVEVHNAKTKPREEQFASTYRVVSVLTVLHQDWLNGKEYKCKVSNKGLPSSIEKTISKAKGQPREPQVYTLPPSQKEMTKNQVSLTCLVKGFYPSDIAVEWESNGQPENNYKTTPPVLDSDGSFFLYSKLTVDKSRWQEGNVFSCSVMHEALHNRYTQKSLSLSP heavy 2: QVQLVQSGAEVKKPGASVTVSCKASGYTFTDYEMHWIRQPPGEGLEWIGAIDGETPDTAYSEKFKGRVTLTADKSTSTAYMELSSLTSEDTAVYYCTRFYSYTYWGQGTLVTVSSASTKGPSVFPLAPCSRSTSESTAALGCLVKDYFPEPVTVSWNSGALTSGVHTFPAVLQSSGLYSLSSVVTVPSSSLGTQTYTCNVDHKPSNTKVDKRVESKYGPPCPPCPAPEFRGGPKVFLFPPKPKDTLMISRTPEVTCVVVDVSQEDPEVQFNWYVDGVEVHNAKTKPREEQFASTYRVVSVLTVLHQDWLNGKEYKCKVSNKGLPSSIEKTISKAKGQPREPQVYTLPPSQEEMTKNQVSLTCLVKGFYPSDIAVEWESNGQPENNYKTTPPVLDSDGSFFLYSKLTVDKSRWQEGNVFSCSVMHEALHNHYTQESLSLSP light: DIVMTQSPLSLPVTPGEPASISCRSSQSPVHSNRNTYIQWYQQKPGQAPRLLIYKVSNRFSGVPDRFSGSGSGTDFTLKISRVEAEDVGVYYCYQGTQVPYTFGQGTKLEIKRTVAAPSVFIFPPSDEQLKSGTASVVCLLNNFYPREAKVQWKVDNALQSGNSQESVTEQDSKDSTYSLSSTLTLSKADYEKHKVYACEVTHQGLSSPVTKSFNRGEC | 0.6
